The supplement of paper PMC9732359
± gives the uncertainty stated by the source.

Experiment: protein stability index of a GFP-peptide fusion (yeast GPS) (PSI 1-4); higher = more stable; sorted into four equal gates, so the index is relative within each strain
Conditions: doa10∆
Outline: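 Plasmids isolated from each sorting gate were PCR-amplified and Illumina-sequenced, and barcodes assigned the reads to strains. The gates, four of equal size, were set by GFP/Cherry fluorescence ratio on mid-log cultures in leucine-free medium. These cultures were yeast carrying a pooled library of tiled 17-residue yeast protein peptides fused downstream of GFP on a plasmid that also expresses Cherry. The protein stability index is the sum of every gate's read frequency times its gate number.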

Row | Sequence | protein stability index
1 | GTFKSTLDREYITLKAT [QCR2] | 1.39 ± 0.065
2 | GTGLQSYLEERERQVNE [RPC53] | 3.17 ± 0.16
3 | GTLDINPDDDYGFKQEI [FAS1] | 3.12 ± 0.26
4 | GTLGEIFIRCNNVLYIR [SMX3] | 3.57 ± 0.21
5 | GTSLKVAPVSEIVNMVP [SIR2] | 2.24 ± 0.089
6 | GTTATGTGLFGQQTAQP [YGR119C/NUP57] | 2.91 ± 0.16
7 | GTWSAKEAVFKSLGVKS [FAS2] | 2.94 ± 0.088
8 | GVDAMSVDDLKKLNKNK [RPL1A] | 3.33 ± 0.078
9 | GVHDGEVEPALLLLQDY [RPN1] | 3.13 ± 0.2
10 | GVIALGQFVTLGCTLVT [RMP1] | 2.65 ± 0.24
11 | GVLLRDAHGVTQARVIT [RPS13] | 2.4 ± 0.075
12 | GVTDLFRHFIGIKAKHD [ISW2] | 1.2 ± 0.13
13 | GVTSLGIKATNGVVIAT [PRE8] | 2.82 ± 0.14
14 | GVTSLIKNLGLPSDRCS [RPP1] | 2.29 ± 0.068
15 | GWYHSHPGFGCWLSSVD [RPN11] | 2.72 ± 0.12
16 | GYVETPRGLRSLTTVWA [RPL3] | 1.75 ± 0.29
17 | HAERDLALAETLKLRAR [SRP68] | 2.95 ± 0.15
18 | HAGTAIGIMASDGIVLA [PRE9] | 2.96 ± 0.095
19 | HALYLAPSGIRMHLAPA [SSN2] | 1.32 ± 0.085
20 | HDELDMNECIADQDMED [ESC2] | 3.22 ± 0.092
21 | HDFIKGLIMLNLQPASV [NUT1] | 1.83 ± 0.059
22 | HDGGFDLVHIKDSLDNT [RPS4A] | 2.05 ± 0.079
23 | HEAYSIIEKITDQILQL [RRP45] | 2.55 ± 0.22
24 | HELITNIGETAGVVQDI [RPB9] | 2.82 ± 0.066
25 | HFELGGEKKQKGQALQF [RPL42A] | 2.72 ± 0.17

Row | Sequence | protein stability index
26 | HFSKDDYSPESKGFVEN [RPO21] | 2.88 ± 0.17
27 | HFVQEEPLAFYLEESFT [RGR1] | 2.32 ± 0.044
28 | HGGGNHQHIGKASTISR [RPL2A] | 3.18 ± 0.051
29 | HGIVFQHPFPLAHSQHR [SSN2] | 2.14 ± 0.066
30 | HGMTLRESFEDNVVRFL [RPO21] | 3.27 ± 0.098
31 | HGQKGVCGIIVKQEDMP [RET1] | 2.93 ± 0.24
32 | HIGHSALKGPVRDKLDE [DPB4] | 3.29 ± 0.085
33 | HIILDTISECNLYDDVK [MED1] | 2.49 ± 0.073
34 | HILFQNNPDMMIQPPQQ [ROX3] | 2.94 ± 0.062
35 | HIRRMVPLAMGIVSVSD [RPN1] | 1.32 ± 0.039
36 | HISKIIGLDTQQVEGKL [RPN6] | 2.95 ± 0.071
37 | HKHALHGTAKALAAAKK [RPL29] | 2.398 ± 0.023
38 | HKYVLTLQLYMVHREFL [RGR1] | 1.38 ± 0.039
39 | HLGLDDPQDVFNYNIFM [SIR2] | 2.99 ± 0.087
40 | HLHDAVFVNTGLQNVRK [SWP82] | 2.99 ± 0.14
41 | HLRYQPDGVVVHRDDPA [SNF6] | 2.91 ± 0.12
42 | HLSSKTGLHFGRLSLRS [QCR10] | 3.24 ± 0.2
43 | HMADAKIMPKDILQITK [SIR4] | 2.99 ± 0.072
44 | HMAKGLYYGSYRSPRVL [COB] | 1.6 ± 0.15
45 | HMATALQIAQLTLKHRQ [RPN10] | 1.58 ± 0.13
46 | HMDYDGNIVKEFENKFQ [YMR129W/POM152] | 3.28 ± 0.069
47 | HNGAPHHAIEEAESLLQ [RPO21] | 3.07 ± 0.12
48 | HPAYLFKGLETPLKARQ [YLR018C/POM34] | 2.16 ± 0.073
49 | HPPDFKRMLLSLSEFAR [SNF2] | 1.32 ± 0.038
50 | HPTVVDAIDNSDEITQD [IRR1] | 3.22 ± 0.093

Row | Sequence | protein stability index
51 | HQSELIIKQTVHPIPDV [YMR129W/POM152] | 2.74 ± 0.066
52 | HRDAYSGGSVNLYHVTE [PRE2] | 2.81 ± 0.11
53 | HRVAENWRKQKGIDSVV [RPL32] | 2.55 ± 0.099
54 | HRWGTKKLPRKTHRGLR [RPL3] | 3.32 ± 0.11
55 | HSKRELDSGDDQPQSSE [BRR2] | 3.33 ± 0.073
56 | HSNESSNETIGEIQLLF [IRR1] | 2.68 ± 0.11
57 | HSSSVFKGTDFVHSVKK [SRB4] | 2.75 ± 0.073
58 | HTATDIYQTLIALNLDT [SNF2] | 2.11 ± 0.032
59 | HTDVSSSLEARYFFYLS [RPN3] | 2.68 ± 0.083
60 | HTLDIINVLTDQNPIQV [RPS5] | 1.88 ± 0.066
61 | HTSSSDGNNEIFTCQIM [RPN4] | 2.57 ± 0.094
62 | HVIQIPLNKPLLTEELA [TAF14] | 2.2 ± 0.053
63 | HWPLNWYLILSIISSKT [RGR1] | 1.57 ± 0.1
64 | HYLFNTFTFTAHMGVLL [SWP82] | 1.69 ± 0.039
65 | IAAERAARKAANKEKRA [RPL7B] | 3.27 ± 0.16
66 | IAAMVAQKCGWTIPHKK [SIR2] | 2.33 ± 0.096
67 | IAARRTGLLRGSQKTQD [RPL2A] | 2.83 ± 0.095
68 | IADSTHVKRITKIAQSQ [ECM29] | 1.86 ± 0.097
69 | IAEGQKKFATVPTGGAS [RPP2B] | 2.81 ± 0.057
70 | IAFASNYGIVELDPECQ [RRP43] | 2.34 ± 0.083
71 | IAIIKDTSDIIVDPTAE [RRP46] | 1.86 ± 0.044
72 | IAKFERSEEEVTKLNVL [YIL149C/MLP2] | 3.4 ± 0.13
73 | IAKTFTVDVSSPTENGV [RPL22A] | 3.04 ± 0.11
74 | IALNLASKKFGKICLIL [SSN2] | 2.41 ± 0.11
75 | IAVLIELLEERFQDSNP [YCS4] | 1.62 ± 0.032

Row | Sequence | protein stability index
76 | ICEDPETAKKITFHPKI [SMC2] | 2.84 ± 0.1
77 | IDAALDKQYRTAVATLL [SMC3] | 1.87 ± 0.093
78 | IDEDKLYPSFKPIYKDT [SSN2] | 2.99 ± 0.095
79 | IDESLFNLLILSLNKRI [YCG1] | 2.75 ± 0.072
80 | IDEVFSWYLNTFDGIRM [GRR1] | 2.42 ± 0.049
81 | IDFAPTSPFGGARPGRV [RPS9A] | 2.82 ± 0.072
82 | IDFFKTDDSFEDKVFAS [BRN1] | 3.02 ± 0.13
83 | IDKLEDLSRIMDWLDNW [ITC1] | 2.58 ± 0.29
84 | IDKNHGFERLTVNEPQM [SRB7] | 3.03 ± 0.094
85 | IDLCHDFPHLTPKLQTQ [YCS4] | 2.6 ± 0.042
86 | IDLLTFQYGSRLPTFLK [RPP1] | 1.89 ± 0.064
87 | IDLLWKGKTPKNAAESS [PRP28] | 2.86 ± 0.17
88 | IDNSPQAISYLHKLQRM [GRR1] | 2.96 ± 0.058
89 | IDSVEVETNTTVLADEF [RPB3] | 2.96 ± 0.076
90 | IDVDMDASPAPSNESCS [SRB5] | 2.6 ± 0.053
91 | IEAEEAEEIGVEHLLRD [RPN8] | 3.1 ± 0.19
92 | IEANVTVKTSDDYVLRI [RPS1A] | 2.98 ± 0.035
93 | IEDRDFLVRYACEPTAE [SIR3] | 2.28 ± 0.064
94 | IEEQGWGGFPLDISVFL [TAF14] | 3.38 ± 0.063
95 | IEIMGILMGFTLKDNIV [RRI1] | 2.46 ± 0.097
96 | IEKFEQVPDSLDDQIFV [RPN6] | 3.31 ± 0.079
97 | IEKNVMESIGSDILTAE [RRP4] | 2.78 ± 0.092
98 | IEKVDRENMICKIDFQK [RRI2] | 3.04 ± 0.11
99 | IELSVPDRQSMDSRVAH [SRB5] | 3.11 ± 0.17
100 | IEQCKHPLHELIIQYPP [ISW2] | 3.19 ± 0.1
